Measured values published in publication doi:10.1101/2025.09.16.676506 (bioRxiv, 2025).
Where two headings read alike, the source gives them in different places.

Key:
Experiment in all cases: cryo-EM structure
[1] = target: the molecule itself
[2] = target: T1, TatB3C3 complex (E. coli, UniProt P69425;P69423)
T1 sequence 1: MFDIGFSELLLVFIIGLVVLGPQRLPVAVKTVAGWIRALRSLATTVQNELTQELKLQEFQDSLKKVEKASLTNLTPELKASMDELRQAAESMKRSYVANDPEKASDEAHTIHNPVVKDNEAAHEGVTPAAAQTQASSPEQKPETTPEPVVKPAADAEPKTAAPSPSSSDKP
T1 sequence 2: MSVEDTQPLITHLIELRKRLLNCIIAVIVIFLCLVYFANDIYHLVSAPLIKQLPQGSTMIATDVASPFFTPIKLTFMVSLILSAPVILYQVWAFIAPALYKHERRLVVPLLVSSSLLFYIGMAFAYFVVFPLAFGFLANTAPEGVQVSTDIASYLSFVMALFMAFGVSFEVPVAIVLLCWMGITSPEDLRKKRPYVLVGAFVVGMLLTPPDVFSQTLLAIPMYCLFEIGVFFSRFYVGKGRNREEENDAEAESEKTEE

[3] = target: T1, TatB3C3 complex; remark: listed apart in the source
[4] = target: T2, TatC with a C-terminal 3XFLAG tag (E. coli), P69423; conditions: remark: other sources report otherwise
T2 chain: T1 sequence 2

B1: TatB (natural protein)
chain: T1 sequence 1
For B1, the “stoichiometry N” value [1] was 3.

B2: SufI–8×His (natural protein)
chain: MSLSRRQFIQASGIALCAGAVPLKASAAGQQQPLPVPPLLESRRGQPLFMTVQRAHWSFTPGTRASVWGINGRYLGPTIRVWKGDDVKLIYSNRLTENVSMTVAGLQVPGPLMGGPARMMSPNADWAPVLPIRQNAATLWYHANTPNRTAQQVYNGLAGMWLVEDEVSKSLPIPNHYGVDDFPVIIQDKRLDNFGTPEYNEPGSGGFVGDTLLVNGVQSPYVEVSRGWVRLRLLNASNSRRYQLQMNDGRPLHVISGDQGFLPAPVSVKQLSLAPGERREILVDMSNGDEVSITCGEAASIVDRIRGFFEPSSILVSTLVLTLRPTGLLPLVTDSLPMRLLPTEIMAGSPIRSRDISLGDDPGINGQLWDVNRIDVTAQQGTWERWTVRADEPQAFHIEGVMFQIRNVNGAMPFPEDRGWKDTVWVDGQVELLVYFGQPSWAHFPFYFNSQTLEMADRGSIGQLLVNPVP
For B2, the “stoichiometry N” value [2] was 2 and the “stoichiometry N” value [3] was 1.

B3: TatC with a C-terminal 3XFLAG tag, P69423 1-258 (natural protein)
chain: T1 sequence 2
In the case of B3, the stoichiometry N [4] is reported as 3.
